Test results: patent US20240083991A1

Experiments:
[1] = molecular target: human mature BMP9 (human) (UniProt Q9UK05); assay: competition ELISA: antibody mixed with 5 nM BMP9-biotin, binding to coated ActRIIA (5 µg/ml) detected
[2] = molecular target: human mature BMP9 (human) (UniProt Q9UK05); assay: competition ELISA: antibody mixed with 1.5 nM BMP9-biotin, binding to coated BMPRII (2 µg/ml) detected
[3] = molecular target: human mature BMP9 (human) (UniProt Q9UK05); assay: competition ELISA: antibody mixed with 15 nM BMP9-biotin, binding to coated ActRIIB (5 µg/ml) detected
[4] = molecular target: human mature BMP9 (human) (UniProt Q9UK05); assay: competition ELISA: antibody mixed with 0.6 nM BMP9-biotin, binding to coated BMPRII (1 µg/ml) detected
[5] = molecular target: human mature BMP9 (human) (UniProt Q9UK05); assay: competition ELISA: antibody mixed with 0.5 nM BMP9-biotin, binding to coated ALK1 (1 µg/ml) detected
[6] = molecular target: human mature BMP9 (human) (UniProt Q9UK05); assay: competition ELISA: antibody mixed with 0.2 nM BMP9-biotin, binding to coated ALK1 (1 µg/ml) detected

human mature BMP9 (human), sequence (Q9UK05 320-429): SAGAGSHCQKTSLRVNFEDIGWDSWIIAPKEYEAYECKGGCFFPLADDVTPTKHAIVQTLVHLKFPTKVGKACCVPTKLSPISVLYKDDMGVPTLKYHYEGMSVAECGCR

IC50 (read off the curve) [1] [nM] | IC50 (read off the curve) [2] [nM] | IC50 (read off the curve) [3] [nM] | IC50 (read off the curve) [4] [nM] | IC50 (read off the curve) [5] [nM] | IC50 (read off the curve) [6] [nM] | Binder
2 | 2 | 8 | 0.1 |  |  | BM01 (antibody, from another filing, V domains shown) VH: QVQLVQSGAEVKKPGASVKVSCKASGYTFTRYWMHWVRQAPGQGLEWMGEINPSQGGTNYNEKFKSRVTMTVDKSISTAYMELSRLRSDDTAVYYCAIGSNYGGLVYWGQGTLVTVSS VL: EIVLTQSPATLSLSPGERATLSCRASESLDNYGISFMNWFQQKPGQAPRFLIYAASNQGSGIPARFSGSGSGTDFTLTISSLQPEDTAVYFCQQSKEVPRTFGGGTKVEIKR
 |  |  |  | 0.1 | 0.06 | BM02 (antibody, from another filing, V domains shown) VH: QVQLVQSGAEVKKPGASVKVSCKASGYTFRSYNMHWVRQAPGQGLEWMGLIYPGNAVTSYSQKFKDRVTMTVDKSTSTAYMELSSLRSEDTAVYYCAKDDYFRGGSYAMDYWGQGTTVTVSS VL: EIVLTQSPDFQSVTPKEKVTITCRASQSIRNNLHWYQQKPDQSPKLLIKYASQSIRGVPSRFSGSGSGTDFTLTINSLEAEDAATYYCQQSHSWPYTFGGGTKVEIKR
